Target: FadR (Escherichia coli (EHEC) 86-24, UniProt B5YXL1 1-239)
Assay: EMSA; apo FadR, no ligand
Conditions: protein: recombinant, tags: N-terminal His (pET28, NdeI/BamHI), chain copies: 2, blunt

Sequence of FadR (B5YXL1 whole entry): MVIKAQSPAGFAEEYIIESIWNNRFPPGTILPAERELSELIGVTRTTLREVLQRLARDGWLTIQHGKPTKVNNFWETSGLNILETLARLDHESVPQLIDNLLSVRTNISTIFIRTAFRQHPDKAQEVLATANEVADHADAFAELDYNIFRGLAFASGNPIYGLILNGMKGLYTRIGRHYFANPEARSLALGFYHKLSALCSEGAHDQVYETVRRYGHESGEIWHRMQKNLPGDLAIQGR

Row | Binder | binding result (label: 32P (T4 PNK)) | binding result (label: 32P (EMSA, T4 PNK), none stated in thermal shift)
1 | ler (LEE1) promoter distal FadR site (FadR_ler site) (dsDNA) DNA 1: TAATCGTTTGTCCGACTTTAACAGA DNA 2: TCTGTTAAAGTCGGACAAACGATTA | binds | –
2 | fadL promoter FadR site (FadR_fadL site) (dsDNA) DNA 1: ATCTGGTACGACCAGAT DNA 2: ATCTGGTCGTACCAGAT | – | binds

Source: article PMC7845647
